Reference: patent US20040096852A1, “Mixed fibrils” (priority 2000, published 2004)
One block for each molecule: values may come before it. Ends that are not written are not given here. * marks the point of attachment. Dansyl = CN(C)c1cccc2c(S(=O)(=O)*)cccc12

Columns and labels:
[1] = pH 2.5
Text: Where the proteins forming the fibrils are unrelated the kinetics of fibril formation are likely to be different.

[2] = Solubility of peptide under labeling conditions; format: physicochemical
Method: TTR10-19 labeling with fluorescein. The N-terminal cysteine residue of TTR10-19 was the target for labeling by the thiol-reactive fluorophore fluorescein-5-maleimide (F5M; Molecular Probes, Eugene, Oreg.). TTR10-19 was resuspended at 1 mg/ml in H2O, and the cysteine residue reduced by the addition of a 10-fold molar excess of tris-(2-carboxyethyl) phosphine (TCEP; Molecular Probes, Eugene, Oreg.) and incubation for 1 h at room temperature. F5M in DMSO was added to the peptide solution to give a 10-fold molar excess of fluorophore over peptide in a final concentration of 10% DMSO. Under these conditions TTR10-19 was fully soluble. The mixture was incubated overnight at 4° C. to ensure maximum labeling. The labeling mixture was then applied to a disposable SepPak C-18 reverse-phase chromatography column (Waters, Milford, Mass.) and washed with H2O/CH3CN (90:10 v/v). TCEP and unreacted label eluted in the wash. The peptide was then eluted from the column with H2O/CH3CN (40:60 v/v), and a mixture of labeled and unlabelled peptide was detected by MALDI-TOF mass spectrometry. […]
TTR105-115 labeling with dansyl chloride. […] The peptide was then eluted from the column with H2O/CH3CN (50:50 v/v), and a mixture of labeled and unlabelled peptide was detected by MALDI-TOF mass spectrometry. […]

TTR10-19 [3] = biological target: T1, TTR10-19 (human); experiment: fluorescence anisotropy of labeled peptide co-assembled into fibrils (free peptide 0.03)
T1 construct: Unlabelled synthetic peptide, present as amyloid fibrils in the assays; also called TTR10-19 fibrils
T1 peptide: CPLMVKVLDA
Method: (§1) All anisotropy measurements were monitored over 10 sec to rule out photobleaching phenomena and then averaged.
(§2) Panel a: F5M-TTR₁₀₋₁₉ incorporated into TTR₁₀₋₁₉ fibrils (dashed line) is compared with F5M-TTR₁₀₋₁₉ (solid line) in 20 mM sodium phosphate buffer, pH 1.0 at a final labeled peptide concentration of 0.3 μM. Panel b: dansyl-TTR₁₀₅₋₁₁₅ incorporated into TTR₁₀₅₋₁₁₅ fibrils (dashed line) is compared with dansyl-TTR₁₀₅₋₁₁₅ (solid line) in water at a final labeled peptide concentration of 0.9 μM. The fluorescence spectra have been normalised. […] Fibrils were pelleted by centrifugation at 9500 g for 15 min, the pellet resuspended in H₂O pH 2 and deposited on a glass slide and imaged using fluorescence light microscopy. […] TTR₁₀₋₁₉ containing 1% (w/w) dansyl-TTR₁₀₅₋₁₁₅ was resuspended at a final total peptide concentration of 10 mg/ml in 10% CH₃CN adjusted to pH 2 with TFA. The sample was incubated at 37° C. for 10 days after which time the CD spectrum indicated the formation of significant O-sheet structure, and fibrils were observed by EM.

TTR105-115 [4] = biological target: T2, TTR105-115 (human); experiment: as above
T2 construct: Unlabelled synthetic peptide, present as amyloid fibrils in the assays
T2 peptide: YTIAALLSPYS
Method: as §1, §2

Bovine insulin [5] = biological target: T3, Bovine insulin (bovine, UniProt P01317 85-105; P01317 25-54); experiment: as above
T3 construct: mature; Bought protein, assembled into amyloid fibrils at low pH and high temperature; also called insulin fibrils
Method: as §1, §2

TTR10-19 [6] = biological target: T1, TTR10-19; experiment: fluorescence anisotropy of labeled peptide co-assembled into fibrils (free peptide 0.02)
TTR105-115 [7] = biological target: T2, TTR105-115; experiment: as above
Bovine insulin [8] = biological target: T3, Bovine insulin; experiment: as above

T3 sequence (P01317 85-105 limits assumed, chain 1 of 2): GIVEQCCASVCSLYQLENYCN
T3 sequence (P01317 25-54 limits assumed, chain 2 of 2): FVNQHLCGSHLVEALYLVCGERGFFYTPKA

- time remaining soluble [1]: 48 h
- solubility ([2]; 1 mg/ml in H2O, TCEP, F5M, final 10% DMSO): fully soluble
Molecule: CPLMVKVLDA [TTR10-19]

- time remaining soluble [1]: 48 h
- solubility ([2]; 1 mg/ml in H2O/CH3CN (80:20 v/v), dansyl chloride, 10% DMSO, pH 9.0): fully soluble
Molecule: YTIAALLSPYS [TTR105-115]

- fluorescence anisotropy on incorporation into fibrils (TTR10-19 [3]): 0.17
- fluorescence anisotropy on incorporation into fibrils (TTR105-115 [4]): 0.22
- fluorescence anisotropy on incorporation into fibrils (Bovine insulin [5]): 0.16
B1: F5M-TTR10-19 (peptide)
peptide: C(fluorescein‑5‑maleimide)PLMVKVLDA
notes: Synthetic peptide derived from human transthyretin; also called fluorescein-5-maleimide labeled TTR10-19

- fluorescence anisotropy on incorporation into fibrils (TTR10-19 [6]): 0.16
- fluorescence anisotropy on incorporation into fibrils (TTR105-115 [7]): 0.13
- fluorescence anisotropy on incorporation into fibrils (Bovine insulin [8]): 0.19
B2: dansyl-TTR105-115 (peptide)
peptide: Dansyl-YTIAALLSPYS
notes: Synthetic peptide derived from human transthyretin
